Measured values: patent publication US20150346192A1

Experiments:
[1] = target: hypothetical protein LOC297607 (rat) (UniProt D4A770); experiment: IP of RBL-2H3 lysate on nickel beads, MS/MS ProtScore; 2nd of 3 experiments
[2] = target: hypothetical protein LOC297607 (rat) (UniProt D4A770); experiment: IP of RBL-2H3 lysate on nickel beads, MS/MS ProtScore; 1st of 3 experiments
[3] = target: hypothetical protein LOC297607 (rat) (UniProt D4A770); experiment: IP of RBL-2H3 lysate on nickel beads, MS/MS ProtScore; 3rd of 3 experiments

Chain of hypothetical protein LOC297607 (rat) (D4A770 whole entry): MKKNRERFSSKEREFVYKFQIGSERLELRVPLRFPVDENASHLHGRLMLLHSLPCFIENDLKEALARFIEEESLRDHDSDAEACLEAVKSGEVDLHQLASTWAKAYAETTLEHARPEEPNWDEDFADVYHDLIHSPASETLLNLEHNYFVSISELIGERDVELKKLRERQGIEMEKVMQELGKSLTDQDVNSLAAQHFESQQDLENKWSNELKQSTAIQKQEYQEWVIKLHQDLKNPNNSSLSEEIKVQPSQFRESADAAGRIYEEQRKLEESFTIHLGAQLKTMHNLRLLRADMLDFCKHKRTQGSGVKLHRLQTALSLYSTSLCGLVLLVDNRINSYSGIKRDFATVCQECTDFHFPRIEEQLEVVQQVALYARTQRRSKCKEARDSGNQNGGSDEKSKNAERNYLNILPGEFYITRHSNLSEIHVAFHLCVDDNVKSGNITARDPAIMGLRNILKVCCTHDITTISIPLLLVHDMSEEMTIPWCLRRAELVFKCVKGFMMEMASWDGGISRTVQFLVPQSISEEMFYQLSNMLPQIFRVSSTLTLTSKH

- Protscore IP [1]: 0
- Protscore IP [2]: 0
- Protscore IP [3]: 2
Substance: irrelevant VH
